Data reported in publication PMC6710095.
Read-outs that look alike come from different tables or passages of the source.

Key:
[1] = molecular target: C-terminal fragment of TraF/VirB10 in the D1 complex (residues 1-129 removed) (plasmid pKM101); assay: negative stain electron microscopy
[2] = molecular target: TraF/VirB10 with C-terminal Strep-tag (TraF/VirB10 C-ST) (plasmid pKM101); assay: negative stain electron microscopy
[3] = molecular target: TraN/VirB7 (pKM101-encoded T4SS lipoprotein) (plasmid pKM101); assay: negative stain electron microscopy
[4] = molecular target: TraF/VirB10 with C-terminal Strep-tag (TraF/VirB10 C-ST) (plasmid pKM101)
[5] = molecular target: TraO/VirB9 (pKM101-encoded T4SS) (plasmid pKM101); assay: negative stain electron microscopy

Substance “C-terminal fragment of TraF/VirB10 in the D1 complex (residues 1-129 removed) (domain or fragment)” has a stoichiometry N [1] of 14.

With “TraF/VirB10 with C-terminal Strep-tag (TraF/VirB10 C-ST) (natural protein)” the stoichiometry N [2] was 14.

“TraN/VirB7 (pKM101-encoded T4SS lipoprotein) (natural protein)” showed a stoichiometry N [3] of 14 and a stoichiometry N [4] of 1.

Work on “TraO/VirB9 (pKM101-encoded T4SS) (natural protein)” yielded a stoichiometry N [5] of 14 and a stoichiometry N [4] of 1.
